Laboratory results taken from US20220289857A1 (Kyowa Kirin, published 2022).
Values joined by “and” are separate entries in the source; they are usually repeats but may differ in a detail not shown here. Equal entries are not always repeated.

Tests used:
[1] = target: T1, human Fn14 (full length) on cells (human, UniProt Q9NP84 28-129); test: cell-based or functional assay
T1 sequence: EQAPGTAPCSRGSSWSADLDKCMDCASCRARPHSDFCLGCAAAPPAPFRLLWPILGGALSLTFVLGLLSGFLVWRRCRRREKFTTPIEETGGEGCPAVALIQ

[2] = target: T2, His-SUMO-huFn14 (soluble human Fn14 aa 28-75 with N-terminal 6xHis-SUMO tag) (human); test: SPR single-cycle kinetics; mAb captured by anti-human Fc, His-Sumo-Fn14 analyte; average of three runs
T2 construct: also called His-SUMO-Fn14; His-SUMO-hFn14
T2 sequence (chain, as listed by the source limits assumed): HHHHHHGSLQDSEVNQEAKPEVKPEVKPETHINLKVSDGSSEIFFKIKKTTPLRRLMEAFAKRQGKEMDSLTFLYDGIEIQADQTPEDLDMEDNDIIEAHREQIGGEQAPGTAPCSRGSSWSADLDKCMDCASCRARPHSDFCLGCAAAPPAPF
Method: (§1) Alternatively, using a method referred to as “single cycle kinetics,” the His-Sumo-Fn14 was injected with increasing concentrations in a single cycle, the surface not being regenerated between injections. Specifically, anti-human Fc specific antibodies were immobilized on a CM5 sensor chip (cat# BR100012, GE Healthcare Life Sciences, Pittsburgh, Pennsylvania) by an amine coupling chemistry. Thereafter, humanized anti-Fn14 antibodies were captured at approximately 200 RUs, followed by injections of increasing concentrations of recombinant human His-Sumo-Fn14 protein. The association time was 120 seconds, and the final dissociation time was 900 seconds. At the end of the analyte injections, the surface was regenerated with 3M MgCl₂ for 30s. The raw data were double referenced by subtraction of the signals from a reference flow cell without immobilized ligand and a buffer blank. The sensorgram corresponding to each concentration was obtained (see FIG. 6B).

[3] = target: T2, His-SUMO-huFn14 (soluble human Fn14 aa …); test: SPR single-cycle kinetics; mAb captured by anti-human Fc, His-Sumo-Fn14 analyte; 1:1 fit
Method: as §1

[4] = target: T1, human Fn14 (full length) on cells; test: flow cytometry blocking assay on HRMC: antibody for 30 min, then recombinant human TWEAK at 250 ng/mL for 45 min; bound TWEAK detected with biotinylated goat anti-human TWEAK and streptavidin-PE; blocked ligand: TWEAK
Method: FIG. 25 depicts that humanized anti-Fn14 antibodies blocked TWEAK binding to Fn14 expressed on cells. HRMC were incubated with individual antibodies at various concentrations for 30 minutes followed by incubation with recombinant human TWEAK (250 ng/mL) for 45 minutes. Binding of TWEAK to HRMC cells was detected with biotinylated goat-anti-human TWEAK followed by streptavidin-PE. Stained cells were acquired on a Fortessa. % TWEAK blocking was calculated using the following formula: 100-(Geometric mean fluorescence intensity of sample—Geometric mean fluorescence intensity of cells without TWEAK)/(Geometric mean fluorescence intensity-TWEAK alone with no antibody—Geometric mean fluorescence intensity of cells without TWEAK)*100.
HRMC cells were incubated with individual antibodies at various concentrations (0.015625-1 ng/mL) for 30 minutes at room temperature. Recombinant human TWEAK (R&D Systems, Cat# 1090-TW/CF) was then added to the cells and incubated for 45 minutes at room temperature. Binding of TWEAK to HRMC cells was detected with a biotinylated goat-anti-human TWEAK (R&D Systems, Cat# BAF1090) followed by streptavidin-PE (Biolegend, Cat# 405204). Stained cells were acquired on a Fortessa. % TWEAK blocking was calculated using the following formula: 100-(Geometric mean fluorescence intensity of sample—Geometric mean fluorescence intensity of cells without TWEAK)/(Geometric mean fluorescence intensity—TWEAK alone with no antibody—Geometric mean fluorescence intensity of cells without TWEAK)*100.

[5] = target: T2, His-SUMO-huFn14 (soluble human Fn14 aa …); test: SPR Biacore; His-Sumo-huFn14 0.111-9 nM

Binder | ICAM-1 MFI on HRMC, 250 ng/mL rhTWEAK, mAb 0.1 µg/mL [1] [MFI] | Kd [2] [nM] | Kd [3] | koff [3] | kon [3] | further results
CRCBT-06-002 as mouse IgG1(D265A), kappa antibody (antibody, V domains shown) VH: EVKLQQSGGGLVQPGGSMKLSCVASGFTFSYYWMNWVRQSPEQGLEWIAEIRLQSNDYPTHYAESVKGRFTISRDDSKNSVYLQMNNLRPEDTGIYYCACRYADYFDHWGQGTTLTVSS VL: DTVLTQSPASLVVSLGQRATISCRASQSVSTSDYSYIHWYQQKPGQPPKFLIKYASNRDSGVPARFSGSGSGTDFTLNIHPVEEDDTAIYYCQHSWEIPPTFGAGTKLELQR | 11800 | – | – | – | – | –
A553/A472 humanized IgG4 Nullbody, kappa antibody (antibody, V domains shown, also called hzR35B9(A56)-HV7c / hzR35B9-LV4) VH: QVQLVQSGAEVKKPGASVKVSCKASGYIFQDYNMHWVKQAPGQGLEWIGSINPRNAWTNYNQKFKGKATITADTSTSTAYMELSSLRSEDTAVYYCASSGWFTYWGQGTLVTVSS VL: DVVMTQSPLSLPVTIGQPASISCKSSQSLLNSAGKTYLNWLLQRPGQSPKRLIYLVSQLDSGVPDRFSGSGSGTDFTLKISRVEAEDVGVYYCWQGTFYPWTFGGGTKVEIKR | – | 0.358 | 0.374 nM and 0.347 nM and 0.353 nM | 0.000804 s⁻¹ and 0.000812 s⁻¹ and 0.000799 s⁻¹ | 2.2e+06 M⁻¹ s⁻¹ and 2.3e+06 M⁻¹ s⁻¹ (2×) | binding result [4]: binds
A437/A290 mouse IgG1(D265A), kappa antibody (antibody, V domains shown) VH: EVQLQQSGPELVKPGASVKMSCKASGYIFQDYNMHWVKQSHGKSLEWIGYINPRNGWTNYNQKFKGKATLTVNKSSRSAYMEFRSLTSEDSAVYYCASSGWFTYWGQGTLVTVSA VL: not shown | 5110 | – | – | – | – | –
R35B9 (A451/A452) antibody (antibody, V domains shown) VH: EVQLQQSGPELVKPGASVKMSCKASGYIFQDYNMHWVKQSHGKSLEWIGSINPRNGWTNYNQKFKGKATLTVNKSSRSAYMEFRSLTSEDSAVYYCASSGWFTYWGQGTLVTVSA VL: not shown | – | – | – | – | – | Kd [5]: 0.132 nM; koff [5]: 0.000994 s⁻¹; kon [5]: 7.52e+06 M⁻¹ s⁻¹
A448/A290 mouse IgG1(D265A), kappa antibody (antibody, V domains shown) VH: EVQLQQSGPELVKPGASVKMSCKASGYIFQDYNMHWVKQSHGKSLEWIGYINPRNGGTNYNQKFKGKATLTVNKSSRSAYMEFRSLTSEDSAVYYCASSGWFTYWGQGTLVTVSA VL: not shown | 6430 | – | – | – | – | –
A448/A439 mouse IgG1(D265A), kappa antibody (antibody, V domains shown) VH: EVQLQQSGPELVKPGASVKMSCKASGYIFQDYNMHWVKQSHGKSLEWIGYINPRNGGTNYNQKFKGKATLTVNKSSRSAYMEFRSLTSEDSAVYYCASSGWFTYWGQGTLVTVSA VL: not shown | 5480 | – | – | – | – | –
R35B9(A56) (A486/A452) antibody (antibody, V domains shown, G56A in HCDR2 removes the NG deamidation site; Constant regions not clear) VH: EVQLQQSGPELVKPGASVKMSCKASGYIFQDYNMHWVKQSHGKSLEWIGSINPRNAWTNYNQKFKGKATLTVNKSSRSAYMEFRSLTSEDSAVYYCASSGWFTYWGQGTLVTVSA VL: not shown | – | – | – | – | – | Kd [5]: 0.0714 nM; koff [5]: 0.000354 s⁻¹; kon [5]: 4.96e+06 M⁻¹ s⁻¹
A641/A468 humanized IgG4 Nullbody, kappa antibody (antibody) heavy: not shown light: DVVMTQSPLSLPVTLGQPASISCKSSQSLLNSAGKTYLNWLQQRPGQSPRRLIYLVSQLDSGVPDRFSGSGSGTDFTLKISRVEAEDVGVYYCWQGTFYPWTFGGGTKVEIKRTVAAPSVFIFPPSDEQLKSGTASVVCLLNNFYPREAKVQWKVDNALQSGNSQESVTEQDSKDSTYSLSSTLTLSKADYEKHKVYACEVTHQGLSSPVTKSFNRGEC | – | 0.256 | 0.262 nM and 0.249 nM and 0.257 nM | 0.000756 s⁻¹ and 0.000773 s⁻¹ and 0.000764 s⁻¹ | 2.89e+06 M⁻¹ s⁻¹ and 3.11e+06 M⁻¹ s⁻¹ and 2.97e+06 M⁻¹ s⁻¹ | –
chimeric R35B9 (antibody, human IgG4 S228P, kappa, It may be the same molecule as m27, R35B9 (A451/A452), but neither the sheet nor the text says so; also called mouse-human chimeric R35B9) heavy chain: not shown light chain: DVVMTQTPLTLSVAIGQPASISCKSSQSLLNSAGKTYLNWLLQRPGQSPKRLIYLVSQLDSGVPDRFTGSGSGTDFTLKISRVEAEDLGVYYCWQGTFYPWTFGGGTKLEIKRTVAAPSVFIFPPSDEQLKSGTASVVCLLNNFYPREAKVQWKVDNALQSGNSQESVTEQDSKDSTYSLSSTLTLSKADYEKHKVYACEVTHQGLSSPVTKSFNRGEC | – | – | – | – | – | IC50 (read off the curve) [4]: ~0.2 µg/mL
A515/A518 humanized IgG4 Nullbody, kappa antibody (antibody, V domains shown, also called hzR35B9(Y50A56G57)-HV7b / hzR35B9(H98)-LV1a) VH: QVQLVQSGAEVVKPGASVKVSCKASGYIFQDYNMHWVRQAHGQGLEWMGYINPRNAGTNYNQKFKGRVTITADKSTRTAYMELSSLRSEDTAVYYCASSGWFTYWGQGTLVTVSS VL: DVVMTQSPLSLPVTLGQPASISCKSSQSLLNSAGKTYLNWLQQRPGQSPRRLIYLVSQLDSGVPDRFSGSGSGTDFTLKISRVEAEDVGVYYCWQGTHYPWTFGGGTKVEIKR | – | 0.47 | 0.461 nM and 0.473 nM and 0.477 nM | 0.00144 s⁻¹ and 0.00154 s⁻¹ and 0.0015 s⁻¹ | 3.2e+06 M⁻¹ s⁻¹ (2×) and 3.1e+06 M⁻¹ s⁻¹ | binding result [4]: binds
A650/A468 humanized IgG4 Nullbody, kappa antibody (antibody) heavy: not shown light: DVVMTQSPLSLPVTLGQPASISCKSSQSLLNSAGKTYLNWLQQRPGQSPRRLIYLVSQLDSGVPDRFSGSGSGTDFTLKISRVEAEDVGVYYCWQGTFYPWTFGGGTKVEIKRTVAAPSVFIFPPSDEQLKSGTASVVCLLNNFYPREAKVQWKVDNALQSGNSQESVTEQDSKDSTYSLSSTLTLSKADYEKHKVYACEVTHQGLSSPVTKSFNRGEC | – | 0.278 | 0.264 nM and 0.287 nM and 0.282 nM | 0.000871 s⁻¹ and 0.000843 s⁻¹ and 0.000825 s⁻¹ | 3.3e+06 M⁻¹ s⁻¹ and 2.9e+06 M⁻¹ s⁻¹ (2×) | –
A512/A468 humanized IgG4 Nullbody, kappa antibody (antibody, V domains shown, Human IgG4null constant (S228P, L235E, R409K); also called hzR35B9(A56)-HV11 / hzR35B9-LV1a) VH: QVQLVQSGPEVVKPGASVKVSCKASGYIFQDYNMHWVRQAHGQSLEWMGSINPRNAWTNYNQKFKGRATITVDKSTRTAYMELSSLRSEDTAVYYCASSGWFTYWGQGTLVTVSS VL: DVVMTQSPLSLPVTLGQPASISCKSSQSLLNSAGKTYLNWLQQRPGQSPRRLIYLVSQLDSGVPDRFSGSGSGTDFTLKISRVEAEDVGVYYCWQGTFYPWTFGGGTKVEIKR | – | 0.206 | 0.226 nM and 0.194 nM and 0.197 nM | 0.000679 s⁻¹ and 0.000664 s⁻¹ and 0.000652 s⁻¹ | 3e+06 M⁻¹ s⁻¹ and 3.43e+06 M⁻¹ s⁻¹ and 3.31e+06 M⁻¹ s⁻¹ | IC50 (read off the curve) [4]: ~0.3 µg/mL
A648/A468 humanized IgG4 Nullbody, kappa antibody (antibody, V domains shown) VH: QVQLQQSGPEVVKPGASVKVSCKASGYIFQDYNMHWVKQAHGQSLEWMGSINPRNAWTNYNDKFKGKATLTVDKSTRTAYMELSSLRSEDTAVYYCASSGWFTYWGQGTLVTVSS VL: DVVMTQSPLSLPVTLGQPASISCKSSQSLLNSAGKTYLNWLQQRPGQSPRRLIYLVSQLDSGVPDRFSGSGSGTDFTLKISRVEAEDVGVYYCWQGTFYPWTFGGGTKVEIKR | – | 0.222 | 0.191 nM and 0.237 nM (2×) | 0.000531 s⁻¹ and 0.000756 s⁻¹ and 0.000742 s⁻¹ | 2.78e+06 M⁻¹ s⁻¹ and 3.19e+06 M⁻¹ s⁻¹ and 3.13e+06 M⁻¹ s⁻¹ | –
